From IntAct's records for PubMed 16330715

B1: Neutrophil cytosol factor 1 (Homo sapiens), P14598 (parent)
chain: MGDTFIRHIALLGFEKRFVPSQHYVYMFLVKWQDLSEKVVYRRFTEIYEFHKTLKEMFPIEAGAINPENRIIPHLPAPKWFDGQRAAENRQGTLTEYCSTLMSLPTKISRCPHLLDFFKVRPDDLKLPTDNQTKKPETYLMPKDGKSTATDITGPIILQTYRAIANYEKTSGSEMALSTGDVVEVVEKSESGWWFCQMKAKRGWIPASFLEPLDSPDETEDPEPNYAGEPYVAIKAYTAVEGDEVSLLEGEAVEVIHKLLDGWWVIRKDDVTGYFPSMYLQKSGQDVSQAQRQIKRGAPPRRSSIRNAHSIHQRSRKRLSQDAYRRNSVRFLQQRRRQARPGPQSPGSPLEEERQTQRSKPQPAVPPRPSADLILNRCSESTKRKLASAV

Variants of: B1
Details: with fak2_human PTK2B

effect of a mutation on the interaction	Variant
disrupting interaction strength	MGDTFIRHIALLGFEKRFVPSQHYVYMFLVKWQDLSEKVVYRRFTEIYEFHKTLKEMFPIEAGAINPENRIIPHLPAPKWFDGQRAAENRQGTLTEYCSTLMSLPTKISRCPHLLDFFKVRPDDLKLPTDNQTKKPETYLMPKDGKSTATDITGPIILQTYRAIANYEKTSGSEMALSTGDVVEVVEKSESGRWFCQMKAKRGWIPASFLEPLDSPDETEDPEPNYAGEPYVAIKAYTAVEGDEVSLLEGEAVEVIHKLLDGWWVIRKDDVTGYFPSMYLQKSGQDVSQAQRQIKRGAPPRRSSIRNAHSIHQRSRKRLSQDAYRRNSVRFLQQRRRQARPGPQSPGSPLEEERQTQRSKPQPAVPPRPSADLILNRCSESTKRKLASAV [W193R]
increasing interaction strength	MGDTFIRHIALLGFEKRFVPSQHYVYMFLVKWQDLSEKVVYRRFTEIYEFHKTLKEMFPIEAGAINPENRIIPHLPAPKWFDGQRAAENRQGTLTEYCSTLMSLPTKISRCPHLLDFFKVRPDDLKLPTDNQTKKPETYLMPKDGKSTATDITGPIILQTYRAIANYEKTSGSEMALSTGDVVEVVEKSESGWWFCQMKAKRGWIPASFLEPLDSPDETEDPEPNYAGEPYVAIKAYTAVEGDEVSLLEGEAVEVIHKLLDGWWVIRKDDVTGYFPSMYLQKSGQDVSQAQRQIKRGAPPRRDDIRNAHSIHQRSRKRLSQDAYRRNDVRFLQQRRRQARPGPQSPGSPLEEERQTQRSKPQPAVPPRPSADLILNRCSESTKRKLASAV [S303D;S304D;S328D]
